# Measured values: the supplement of paper PMC9170038
# Tested on: MS2 coat protein
# Experiment: apparent KD of MS2 coat protein; designed switch direction (-1 OFF switch, 1 ON switch): 1; higher = weaker reporter binding
# Outline: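 The reported apparent KD is a per-design median over clusters, from curve fits of normalised cluster fluorescence. Protein titrations used SNAP-549-labelled MS2 coat protein, doubled from 0.7 or 1.5 nM to 3 µM, in Tris-HCl pH 7.5 buffer with KCl, MgCl2, BSA, DTT, tRNA and Tween-20, with no input, 200 uM small-molecule ligand, or an oligonucleotide input. The RNA switches were transcribed on Illumina chips by stalled E. coli RNA polymerase.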
# [1] = input ligand: microRNA oligo, concentration not stated
# [2] = Eterna round: R95, input ligand: FMN 200 uM
# [3] = Eterna round: R95, input ligand: microRNA oligo, concentration not stated
# [4] = Eterna round: R95, input ligand: none
Sequence,apparent KD of MS2 coat protein (input ligand: FMN 200 uM) [nM],apparent KD of MS2 coat protein [1] [nM],apparent KD of MS2 coat protein (input ligand: none) [nM],apparent KD of MS2 coat protein [2] [nM],apparent KD of MS2 coat protein [3] [nM],apparent KD of MS2 coat protein [4] [nM]
"CAAGAAAACGCAGGAUAUACUCGGGCUACCCGAGUAGAAGGGUGACACAUGAGGAUCACCCAUGUACAUAGCAUUAGCUAUGGA [Onedve] (Eterna round: R96, puzzle: Same State NG 1)",2270,827,770,–,–,–
"CACAAUCUAUCUGAGGAUAUCAUGAAAAAAACAUGAGGAUCACCCAUGUGCAGGAAAACUGCAUAUGAGAAGGCAGAUAGAUUGG [salish99_SS2_r3_014] (Eterna round: R96, puzzle: Same State 2)",–,504,–,–,–,–
CACAAUCUAUCUGAGGAUAUCAUGAAAAAAACAUGAGGAUCACCCAUGUGCAGGAAAACUGCAUAUGAGAAGGCAGAUAGAUUGG [salish99_SS2_r3_014] (puzzle: Same State 2),–,–,–,29.7,577,1090
"CACGUCUAGGUAGGAUAUGAGGUGCCACAGGGAAAAGCCUAUGGACAUGAGGAUCACCCAUGUCCUCAGAAGGGCCAGACGUGA [Inzala] (Eterna round: R96, puzzle: Same State NG 2)",25.9,36.9,52.4,–,–,–
CAGCACUGUCGAGAGGAUAUGCGGUGAUGGACAUGAGGAUCACCCAUGUUAGCGACAGCAUCACGGCAGAAGGCUCUGCUGCUGC [Soteed Omei mod 36] (puzzle: Same State 2),–,–,–,–,47.7,–
CAGCGCUGUCGAGAGGAUAUGCGGUGAUGGACAUGAGGAUCACCCAUGUUAGCGGUAGCAUUACGGUAGAAGGCUCUACAGCUGC [Soteed - 3] (puzzle: Same State 2),–,–,–,–,24.7,–
"CCGUUCAAUAAACAUGAGGAUCACCCAUGUUAUAAUAUGGGUGAGGAUAUGCAUCUGAAACAGGUGCAGAAGGCAUAAGAGCGG [JL SSNG3 3.92] (Eterna round: R96, puzzle: Same State NG 3)",214,37.7,100,–,–,–
CCUUAACAUGAGGAUCACCCAUGUAACAAGGAGUAAGGAUAUACAUGGGAAAACAGUCAUGUAGAAGGUACAAAAG [Rexereon] (puzzle: Same State 1),–,–,–,15,11.8,18
"CGCCAGAGAGCAGGAUAUGGGCCACGGCCUAAGGGCUGUGAACUCACAUGAGGAUCACCCAUGUCCCAGAAGGGCUCCUGGCGG [Veatzain] (Eterna round: R96, puzzle: Same State NG 2)",62.4,1240,2110,–,–,–
"CGCCAGAGAGCAGGAUAUGGGCCACGGCCUAAGGGCUGUGAACUCACAUGAGGAUCACCCAUGUCCCAGAAGGGCUCCUGGCUA [Temabeanan] (Eterna round: R96, puzzle: Same State NG 2)",112,1020,1180,–,–,–
"CGGACUCCCUUAGGAUAUGGGAAAGGAAGUGUACCAGAAGGAAGGGUUCCGAUCCUCCAACAUGAGGAUCACCCAUGUAUGAGG [PowerStrip SSNG 1.3] (Eterna round: R96, puzzle: Same State NG 1)",16.3,21.3,22.6,–,–,–
CGGCGCUGUCGAGAGGAUAUGCGGUGAUGGACAUGAGGAUCACCCAUGUUAGCGAUAGCAUUACGGUAGAAGGCUCCACAGCUGU [Soteed Omei mod 12] (puzzle: Same State 2),–,–,–,42.5,187,420
CGGCGUUGUCGAGAGGAUAUGCGGUGAUGGACAUGAGGAUCACCCAUGUUAGCGAUAGCAUUACGGUAGAAGGCUCUACAGCUGC [Soteed Omei mod 7] (puzzle: Same State 2),–,–,–,–,42.5,–
"CGGGAAAUCGUAGGAUAUCUAGGAUAUGAACGAGGAUCACCCGAGCAGCAUCAGCGCAUCAGAGGAGAGAAGGACGAUGAUGCG [pwkr ssNG2 2F5 2FMN.17] (Eterna round: R96, puzzle: Same State NG 2)",327,273,65.7,–,–,–
CGGGUACAUGAGGAUCACCCAUGUGGGAGAGAUGCAGGAUAUGUGGGAAAAGGGAAUGUAACAGAAGGGCAAGGAG [JR_SS!_Sub015] (puzzle: Same State 1),–,–,–,220,128,124
CGGGUACAUGAGGAUCACCCAUGUGGGAGGGAUGCAGGAUAUGUGGGAAAAGGGUAUGAAACAGAAGGGCAAGGAG [JR_SS!_Sub013] (puzzle: Same State 1),–,–,–,29.6,33.2,35.1

Sequence,apparent KD of MS2 coat protein (input ligand: FMN 200 uM) [nM],apparent KD of MS2 coat protein [1] [nM],apparent KD of MS2 coat protein (input ligand: none) [nM],apparent KD of MS2 coat protein [2] [nM],apparent KD of MS2 coat protein [3] [nM],apparent KD of MS2 coat protein [4] [nM]
CGGGUACAUGAGGAUCACCCAUGUUGGAGUAAUGCAGGAUAUGUGAGACGAGAUGAUAAAACAGAAGGGCAAGGAG [JR_SS!_Sub010] (puzzle: Same State 1),–,–,–,50.2,70.5,123
"CGGGUCGUGCUAGGAUAUCUAGGAUAUGGACGAGGAUUACCCGAGCAGCAUUAGCGCACCAGAGGAGAGAAGGAGCGUGAUGCG [pwkr ssNG2 2F5 2FMN.15] (Eterna round: R96, puzzle: Same State NG 2)",287,42.2,109,–,–,–
CGUCCAGCCUGAGCUGGACAAAAGCAUGUACAUGAGGAUCACCCAUGUUCAUGUACAAGCUUUUUGCUCGUCUUACG [salish99_208a_r3_093x] (puzzle: Sensor for hsa-mir-208a),–,–,–,507,16.7,617
"CGUCCGGCCUGAGCUGGACGGAGGCAUGUACAUGAGGAUCACCCAUGUUCAUGUGCAGGCUUUUUGCUCGUCUUGUG [JL-shm-2.07 JL mod] (Eterna round: R96, puzzle: Sensor for hsa-mir-208a)",62.8,10.6,57.8,–,–,–
CGUCCGGCCUGAGCUGGACGGAGGCAUGUACAUGAGGAUCACCCAUGUUCAUGUGCAGGCUUUUUGCUCGUCUUGUG [JL-shm-2.07 JL mod] (puzzle: Sensor for hsa-mir-208a),–,–,–,53,10.9,54.2
CGUCCGGCCUGUGCUGGACGGAAGCAUGUACAUGAGGAUCACCCAUGUUCAUGUGCAGGCUUUUUGCUCGUCUUGUG [salish99_mir208a_modof_jandersonlee_005] (puzzle: Sensor for hsa-mir-208a),–,–,–,102,13.4,117
CGUCCGGCCUGUGCUGGCCGGUUGCAUGUACAUGAGGAUCACCCAUGUUCAUGUGCAGGCUUUUUGCUCGUCUUGUG [salish99_mir208a_013] (puzzle: Sensor for hsa-mir-208a),–,–,–,19.4,11.2,18.9
"CGUCGUUUGAUAGGAUAUCGCUUUACAUGAGGAUCACCCAUGUUUACCACGCUGGUUUUUCUUUCCGAGAAGGAUUCUGAUGUU [salish99_SSNG02_r04_023] (Eterna round: R96, puzzle: Same State NG 2)",35.7,25.2,35.9,–,–,–
"CGUCGUUUGAUAGGAUAUCGCUUUACAUGCGGAUCACCCAUGUUUACCACGCUGGUUUUUCUUUCCGAGAAGGAUUCUGAUGUU [salish99_SSNG02_r04_026] (Eterna round: R96, puzzle: Same State NG 2)",42,10.1,134,–,–,–
"CGUCGUUUGCUAGGAUAUCGCUAUACAUGAGGAUCACCCAUGUUUACCACGCUGGUUUUUCAUACCGAGAAGGAGUCUGAUGUU [salish99_SSNG02_r04_020] (Eterna round: R96, puzzle: Same State NG 2)",28.8,24.8,33,–,–,–
CGUGGGUGGCUGGAGGAUAUUCGAGUGGUAACAUGAGGAUCACCCAUGUGUCGCGCGGUACACGAGGAGAAGGCUGGCGGCCGGC (puzzle: Same State 2),–,–,–,34.6,109,256
CUAUCUACAGGUGUCUUUGCUCGUCUUAUACAUGAGGAUCACCCAUGUUAUAGCCCGGUGCUUGCGCUGGGCUGAUU [JL ViennaUCT Tearor mod 6] (puzzle: Sensor for hsa-mir-208a),–,–,–,79.8,13.2,95.7
CUAUCUACAGGUUUCAGUGCUCGUCUUAUACAUGAGGAUCACCCAUGUUAUAGCCCGGUGCUUGCGCUGGGCUGAUU [JL ViennaUCT Tearor mod 3] (puzzle: Sensor for hsa-mir-208a),–,–,–,31.4,14.8,39.3
CUAUGACAUGAGGAUCACCCAUGUGAUAAUUUCAUAGGAUAUACGGCGCCGUUAAGGGCCGUAGAAGGGUGAUCGA [Veonti] (puzzle: Same State 1),–,–,–,35.4,30.7,22.9
CUCAAACAUGAGGAUCACCCAUGUUUUUUCAUGGGAGGAUAUCUAAGUUCAUUAUAUUCAGGAGAAGGCCUAUGUC [× ×•×ª×• ×ž×“×™× ×” × ×—×ª-07] (puzzle: Same State 1),–,–,–,159,729,261
"CUGAGAAGUCAAGGAUAUCACGUCGAUUAGACGUGAGAAGGUGAUCAUUACAUGAGGAUCACCCAUGUGUUACAUGGAACUCAG [Brourd's SSNG1/1-A2 mod 7] (Eterna round: R96, puzzle: Same State NG 1)",672,659,762,–,–,–
